Measured values as given in PMC8811534.

Target: hAGO2 (human, UniProt Q9UKV8 1-859)
Assay: EMSA

Chain of hAGO2 (Q9UKV8 whole entry): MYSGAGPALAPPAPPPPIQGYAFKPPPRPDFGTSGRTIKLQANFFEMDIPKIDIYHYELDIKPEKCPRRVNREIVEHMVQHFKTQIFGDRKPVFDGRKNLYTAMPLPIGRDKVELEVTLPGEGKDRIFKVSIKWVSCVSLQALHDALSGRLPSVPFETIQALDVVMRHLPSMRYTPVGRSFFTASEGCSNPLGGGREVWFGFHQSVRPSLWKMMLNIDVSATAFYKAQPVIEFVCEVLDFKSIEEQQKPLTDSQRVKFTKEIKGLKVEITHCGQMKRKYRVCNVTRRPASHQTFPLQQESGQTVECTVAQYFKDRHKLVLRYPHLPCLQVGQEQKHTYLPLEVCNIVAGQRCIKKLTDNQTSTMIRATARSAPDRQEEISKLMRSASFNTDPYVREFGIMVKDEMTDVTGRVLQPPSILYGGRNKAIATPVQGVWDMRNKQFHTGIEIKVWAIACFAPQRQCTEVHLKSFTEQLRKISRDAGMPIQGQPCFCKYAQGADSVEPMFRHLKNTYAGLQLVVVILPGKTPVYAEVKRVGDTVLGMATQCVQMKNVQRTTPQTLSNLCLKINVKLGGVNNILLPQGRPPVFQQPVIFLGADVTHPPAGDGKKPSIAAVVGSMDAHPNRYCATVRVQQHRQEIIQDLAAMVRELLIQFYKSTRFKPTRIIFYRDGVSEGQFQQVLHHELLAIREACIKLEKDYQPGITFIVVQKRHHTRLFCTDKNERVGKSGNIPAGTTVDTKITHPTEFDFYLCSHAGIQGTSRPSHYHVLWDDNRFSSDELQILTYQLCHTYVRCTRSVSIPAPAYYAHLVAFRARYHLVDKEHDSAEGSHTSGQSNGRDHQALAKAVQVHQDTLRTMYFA

B1: 5'Cy5-HIS-SARS2-1 DNA-RNA hybrid (DNA:RNA)
DNA: AGCCTTTACCTCCATTAGCATAGACA
RNA: UGUCUAUGCUAAUGGAGGUAAAGGCU
B1: binds.
